Measurements taken from a protein production outcome set (Wang et al. 2014).

Test: label from the status in PepcDB records

Sequence | protein production
MPMDFQILDADYEVVNDSGPVIRLFGRGADGKSVCCFVPDFEPYFYLKASGDLHAVARLIKDTFEQVKKVEIVEKFEPVGYQKTKKEMLRVTTRLPKDVPEIRDEILKIRDVLRAEGDWQVYESDILFRNRFLIDRALGGMVWVSAEGKPVDPVRYLGAGSAWRSRCENFACDSAVLASGLKRVENLAIAPLKYLAFDIECLPLDGGMPSPDVSPIIMISFSFEPEYKGHKTLILLAKPAAGMDGDVLSCMDETEMLNKFFEIICEYDPDIVAGYNHQDFDIPYITERVKALVAKGETINSVVGRDGSPIGYRKFGLITRTEMKGRVVVDALPLVRRAFSLKQYTLRAVSKELLSREKLDVPPLEMEEHWNDSGDKFRKFVDYARRDSELALELVLELRLLDKYIALAQVSGSLLQEIVDGGQTSMVETLLLREFGLKDRVILPKPGDELSAERYDMSSDLKGGEVLEPKKGLLENVLILDYKSLYPTIMMAHNLCYTTVVTRDRPDGKTIKPPSGGEFVPPEVFRGIVPSILEDLLNKRGDTKKRMKRTSDENEHRVLDATQLAIKILLNSFYGYSGYARARLYSLTLANAVTSFGRSNILNTRDLINGRIGKIVLRNSAALLLEEAGKLSPQDRIVELSVAYGDTDSVFVHCKAKGDLSLEEVSLVGNRLSEIVSASLPDPMELEFESVAKRALLIAKKRYALWLFEPRNSGWENKIKVKGMETVRRDWCELTSITLNRVLEFVLIEGDVDKAVEHVRKVVSDVRNLDPGKDAGIIEKLVLTRTLTRKADSYKNKQPHLTVAENLKKRTGIMPSIGTRIPFVITAGKGLFVDRAEDPDYVRENNVPIDVDYYVKKQILPPVERILEVFGVKMSSLDFDAKQKGLFDFEVKKPEAKKQEKSSSQKGTNGKILEKAPEEKARYSENGRVEQRSLFDF | failed
MSNGIVIIGSGFAARQLVKNIRKQDATIPLTLIAADSMDEYNKPDLSHVISQGQRADDLTRQTAGEFAEQFNLHLFPQTWVTDIDAEARVVKSQNNQWQYDKLVLATGASAFVPPVPGRELMLTLNSQQEYRACETQLRDARRVLIVGGGLIGSELAMDFCRAGKAVTLIDNAASILASLMPPEVSSRLQHRLTEMGVHLLLKSQLQGLEKTDSGIQATLDRQRNIEVDAVIAATGLRPETALARRAGLTINRGVCVDSYLQTSNTDIYALGDCAEINGQVLPFLQPIQLSAMVLAKNLLGNNTPLKLPAMLVKIKTPELPLHLAGETQRQDLRWQINTERQGMVARGVDDADQLRAFVVSEDRMKEAFGLLKTLPM | failed
MSLARQVTAFNTGWQFKKGPFATDPMRAASQWDGKWETVEIPHTWNAMDMQVQSGSFYEGAGYYRKTQFFPHDLEGKRVFLRFEGVGACAEVYVNGKLAGTHKGGYSAFACEIGTALKLGAENEIIVKADNKARPDVIPVNQNLFGVYGGIYRPVWLIVTEQNNITVTDCASPGVYITQKDVSKKSADITVKVKLDNAGLQPAAVTLENTIYTQEGQKVGTHSRSFDLSPQGTQTYLSTFKLKNPHLWQGRKDPYLYKVVCRLMADGKVIDEVVQPLGVRKYEIVAGKGFFLNGEKYSMYGVTRHQDWWGLGSALKNEHHDFDLAAIMDVGATTVRFAHYQQSDYLYSRCDTLGLIIWAEIPCVNRVTGYETENAQSQLRELIRQSFNHPSIYVWGLHNEVYQPHEYTAALTRSLHDLAKTEDPDRYTVSVNGYGHMDHPVNLNADIQGMNRYFGWYEKKIQDIKPWVEQLEKDYPYQKLMLTEYGADANLAHQTEYLGDALNWGKPFYPETFQTKTHEYQWSIIKDHPYIIASYLWNMFDFAVPMWTRGGVPARNMKGLITFDRKTKKDSYFWYKANWSEEPVLYLTQRRNADREKRTTAVTVYSNIGTPKVYLNGQELSGIRNGYTDVHYVFDNVSLADGKNILKAVVSTKGKEYTDEIEWNYSGEKNREIDSYENKNEHSGEGHHHHHH | not failed
MSQERTDGDLRNTGLSLKHDREWDYELDRIVEAVEERDAEKVGLQFPEGLKRRGPAVADDLREELPDDVTVLLSGQPCYGACDLDTYMMRRTDVFVHFGHSPMKESDKIIYVPLFSNVDVFPIMEQAREEQLADPEDDPDVGLVTTAQHMNKFDEMREWLEERGYTVHTRRGDERLTHEGQVLGCNYASADVDADQMLYVGGGKFHPLGLAMEHPEKHVVIADPVNNVVTVADTEKFMKQRYGAVHRAMDAESWGVIFCTKIGQGRWDQAEEIVENNENAYLITMDEVTPDRLTNFGMDAYVNTGCPRITTDDGPQFKKPMLTPGEYEIAIGEKPLDSLEFDTFHGTWLEHHHHHH | not failed
MRSAGEPRWVVPILASPLLWHAARFALVSAYLLGGVVKLFDFAAAVAEQERFGLHPGWLWATLAIVVELGGSLLVLADRLVWLGAGALGVLTFVAMLTANAFWSAPAADRWIQANAFFEHFGLIAGFVLLAMLSDQRRSTS | failed
MMVDTGVDHRAVSSHDGPDAGRRVFGAADPRFACVVRAFASMFPGRRFGGGALAVYLDGQPVVDVWKGWADRAGWVPWSADSAPMVFSATKGMTATVIHRLADRGLIDYEAPVAEYWPAFGANGKATLTVRDVMRHQAGLSGLRGATQQDLLDHVVMEERLAAAVPGRLLGKSAYHALTFGWLMSGLARAVTGKDMRLLFREELAEPLDTDGLHLGRPPADAPTRVAEIIMPQDIAANAVLTCAMRRLAHRFSGGFRSMYFPGAIAAVQGEAPLLDAEIPAANGVATARALARMYGAIANGGEIDGIRFLSRELVTGLTRNRRQVLPDRNLLVPLNFHLGYHGMPIGNVMPGFGHVGLGGSIGWTDPETGVAFALVHNRLLSPLVMTDHAGFVGIYHLIRQAAAQARKRGYQPVTPFGAPYSEPGAAAG | failed
MKSRTSELAAGIFVIIFGVALFFLAMKVSGLAGTNLSDPYTMTAQFDNVNGLKPRAKVTMSGVTIGRVDAITLDPVTRLATVTFDLDGKLTTFNAKQLKTVEQNALEELHYSSDYKSAEPAKQKVMEQQLIDNMKSITSIDEDAYIMVSTNGLLGEKYLKIVPGGGLNYLKRGDAITNTQGTMDLEDLISKFITGGAGKSSDNSTGTAAQSSSSEDKEPSFTELEHHHHHH | failed
MTRQRIAIDMDEVLADTLGAVVKAVNERADLNIKMESLNGKKLKHMIPEHEGLVMDILKEPGFFRNLDVMPHAQEVVKQLNEHYDIYIATAAMDVPTSFHDKYEWLLEYFPFLDPQHFVFCGRKNIILADYLIDDNPKQLEIFEGKSIMFTASHNVYEHRFERVSGWRDVKNYFNSIEK | failed
MEKFMYSLGVSKKDKIYKDLLKIAIPTAIEFFLFNFISLTDNAMVAYLGDYPVAGVSLANKFFELFVTIGFSMAGAYNIIATRQYNQGDFKSFRNTFFISILTIILFSFPFILISIVNPFFLLRLISNDERAVYYGAAYLNIAIFSFVFAIIKGLIANALKVVEIVKFQVYISVFSVLLNFVFNYIFIFVFHMGVVGAAIATTVIRTLELIVYLVCTAFNKNSILHFKLDDLNINIKPFAQLIKFFIPILLNEFAWFFGYLVLTSIFIGIDTHKYAAYSISFSIYFIIFNIIHSFCISLNIMMGYEMHNSKKEIMKVAIYLSKIGLKLAFLTSFVLFIFSFFAPYIFYTLKYSHLIGIILRYSSVSAFFMALAFQYLFGFFRAGASPSFGAIMEGSVTFVYTIPIAFVLANYTNLPFEIIVFIPSLEDAIKLVVSLPYFYSERWIKSV | failed
PPSTLIGPGDDAALVRADDGRVAVSADMLVQDRHFRLDWSSPRDVGRKAVAQNAADVAAMGARPTAFLVSLGLPPDTSIDVADGISAAIGESAEELGAGVVGGDLVQAGQVVISVTVLGDLGGRS | failed
MCHQLSKKTKKALDQELKRKTTLKNNLFSRYLLFRYSLALFFFVNLYWTFPLIYKPSVYVILPVSLLILIVLACAEQFKLYSLQEVYLRNTERVFKTQIVVQILLLIINIFPQQLSVAIPFFSNNMAAHVFLAVFQFLGLFICWYNLKRIKQIKNNEDKFYNRFYNHIEKYI | failed
MGRAFEYRRAAKEKRWDKMSKVFPKLAKAITLAAKDGGSEPDTNAKLRTAILNAKAQNMPKDNIDAAIKRASSKEGNLSEITYEGKANFGVLIIMECMTDNPTRTIANLKSYFNKTQGASIVPNGSLEFMFNRKSVFECLKNEVENLKLSLEDLEFALIDYGLEELEEVEDKIIIRGDYNSFKLLNEGFESLKLPILKASLQRIATTPIELNDEQMELTEKLLDRIEDDDDVVALYTNIE | failed
RKIFTNKCERAGCRQREMMKLTCERCSRNFCIKHRHPLDHDCSGEGHPTS | not failed
MRSSQGSGADPGARGRVDQRLRRGARPAPTSPHSPAKTNHPLRAAIIGGGPGGLYTAALLKRLAPDREVTVYERNAPDDTFGFGVVLSDETLGGIEHADPTVYEALKAHFVRWDDIDIVHRHTRHTSGGHRFAALGRRRLLEILHDRCRDLGVELRFRTEAPPPDRLARTHDLVVAADGVHSATREAYRDVFRPRLTPHRCRYIWLAADFAFDAFRFEIAETEHGVMQLHGYPFAPDASTVIVEMREEVWRAAGFDELDETESTARCAKIFADALGGRPLRSNKSAWTTFRTVVNERWSHGNIVLLGDAAHTAHFSIGSGTKLAVEDALALAACLAERPTLQEALTAYEEERRPVVASTQRAAKASLEWFEDLDRYLAQPPRQFAFNLLTRSRRVTHENLRLRDAGFTESVEREFGCPPDTPPMFTPFRLRGLTLRNRVVVSPMDMYSATDGVPGDFHLVHLGARALGGAALVMTEMVCVSAEGRITPGCAGLYTGRQGEAWRRITDFVHDGAPGTAIGVQLGHSGRKGSTRLMWEGMDEPLPDGNWPLVAPSPLPYRPGGQVPRELSRAQLADVREQFRAAAERAAGAGFDLLELHCAHGYLLSGFLSPLTNHRTDAYGGSPENRLRFPLEVFDAVREVWPDERPMTVRISATDWAEGGTSAEEAVEIARAFAAHGADAIDVSTGQVVSGERPEFGRSYQTPYADRIRHEAGVPVIAVGAISSWDDVNSLVLAGRTDLCALARPHLYDPHWTLHAAAEQGYDGPGARWPAPYRAGSRPPRTGRTDAPRPRLTLHGPGQDG | failed
MTKNKKGKNKEVINNYEEEEDYNIIDHDENAEVDVIPEPDFNSNMVYLNIYDLDSVSKVVNTVARSVGAGAFHAGVEVYGYEYSFGYIMDGETGVTKTNARVMIQKNNEILKNIKTYRIHVNIYIYIFLLVFSKTPLTKEEVDLLVEVMKLQWIGDTYDILSRNCLNYADYFCNLLDVGGIPEWVMSLQKKVTWVKSNINIAASKLKELNKAAGIPNVINYLKKKYEDSNSSDDYKGCKVVVK | failed
MNFEGIIIAAISFFIIGIFHPIVIKLEYYLTKNIWPLFLILGIIFIIISLFQKQTVAAAIMGIIGATCIWSIKEIFEQEKRVQKGWFPKNPRKK | failed
MVNNDTLSGDVYTASEAKQVQNVSYGTIVNVRPVQIQGGDDSNVIGAIGGAVLGGFLGNTVGGGTGRSLATAAGAVAGGVTGQGVQSAMNKTQGVELEIRKDDGNTIMVVQKQGNTRFSPGQRVVLASNGSQVTVSPRLEHHHHHH | failed
MKQKQFYFIYVFLLSMTFLGACSKDSPNELIPNTIVKIEIDKLPGKRIYFIGEELDVSDMTLKVFYSNETSEIVPVKKDEVTGFNSTVPENDQILEVHKGSFTVTFKIQVLINDIQAISIKTLPSKTVYTLGEPLSLSNMVLEINYADGTIKENSAPSADWVQGFNSSVPAQLQIVTLELDGKQVSFDVQILPVKVDGDKVVSVIDSDFTSITFPDGIRTIGSKAFENKNIKASELLCPASLSTIEQAAFAYCRNLKIVDLSHTSIKELPEEAFLFSGIKKIALPASLEIVGKEAFYGCTDLNVIDISHTSVKELQNGAFGKSGISSISLPSTFKIVGASAFIETKNLKELTLPEGSEVIDLEAFSGSSIQKVTLPNTIYHIDRSFYSCPELTTIETYGTRTTPSPVDRTAAIVSECFNHSPKLTVLKIPASIVKIGISALNKCQVKTLILPASVKALDFNAFGNAVSLDEISLMSPTMVTADYYPVPPGIQKIRVPQNLVETYKQNKAWKPFAEKIVAL | failed
